One block for each molecule: values may come before it.
Tests used:
ATDC5 cells = test: MTT assay of ATDC5 cell growth; format: cell-based, mouse; details: added alone, medium 1-2
Description: ATDC5 was inoculated to a 12-well plate at 0.4×10^5 cells/well, and cultured using the medium 1-2 described in Example 19 for 24 hours, after which asporin and bFGF were added, and MTT assay was performed over time as described below. Specifically, the medium was removed by suction, the 1 mg/ml MTT reagent (DOJINDO) dissolved in DMEM/F12 was added at 1 ml/well, and the plate was incubated in a CO2 incubator for 1 hour. The supernatant was removed by suction, a Lysis reagent (86% isopropanol, 40 mM HCl, 1% SDS) was added to the plate at 0.2 ml/well, and extraction was performed at room temperature for 5 minutes. This extract was transferred to a 96-well plate, and OD550 was measured using a plate reader.

type II collagen = test: Binding assay of asporin and collagen (type II); details: 37° C., 5 hours, precipitate, Western blotting
Description: (§1) A binding assay of asporin and collagen was performed by the method described below. As a collagen an acid-soluble type II collagen solution (KOKEN, 3 mg/ml) and an acid-soluble type I collagen solution (1-C: Nitta Gelatin Inc., 3 mg/ml) were used. A reaction mixture comprising 5 μl of an acid-soluble collagen solution (3 mg/ml), 5 μl of an S-tagged human asporin reaction mixture prepared by the method described in Example, and 90 μl of PBS, was prepared, and incubated at 37° C. for 5 hours. This reaction mixture was centrifuged (10,000 rpm, 5 minutes, 4° C.), after which the precipitate was washed with PBS three times. The washed precipitate was dissolved in 20 μl of a sample buffer (comprising 1 μl of 2-mercaptoethanol), after which SDS-PAGE was performed, and Western blotting was performed using streptavidin-HRP. As a result, S-tagged human asporin D13 and D14 bound to both type II collagen and type I collagen (FIG. 21a).

type I collagen = biological target: T1, type I collagen (Homo sapiens, UniProt P02452+P08123); test: Binding assay of asporin and collagen (type I); details: 37° C., 5 hours, precipitate, Western blotting
T1 construct: purchased Nitta Gelatin Inc. 1-C
Description: as §1

TGF-β1 = TGF-β1 (Homo sapiens, UniProt P01137); test: Binding assay of asporin and TGF-β by pull-down assay method; details: S-Protein agarose precipitate, Western blotting
Description: With the pET29b-ASP13 and pET29b-ASP14 thus prepared as the templates, S-tagged human asporin D13 and D14 were prepared by performing a reaction in the presence of Transcend™ Biotin-Lysyl-tRNA using TNT Quick Coupled Transcription/Translation Systems (Promega). A reaction mixture comprising S-tagged human asporin D13 or D14 (10 μl) and TGF-β1 (0.1 μg) were mixed in buffer A (50 mM Tris (pH 7.5), 150 mM NaCl, 1% Triton X-100, complete protease inhibitor cocktail tablets (Roche)) at 4° C. for 1 hour, S-Protein agarose (Novagen, 12.5 μl) was added, and the mixture was further incubated at room temperature for 30 minutes. The precipitated resin was washed with buffer A five times, after which SDS-PAGE was performed under reducing conditions. S-tagged human asporin in the precipitate was detected by Western blotting using streptavidin-HRP (R&D Systems), and TGF-β1 was detected by Western blotting using biotinylated anti-TGF-β1 antibody (Genzyme). As a result of an examination of the binding of human asporin and TGF-β by the method described above, a band of TGF-β1 was detected in the precipitate comprising S-tagged human asporin D13 or D14 (FIG. 17).
Using the recombinant mouse asporin purified by the method described in Example 31, its capability of binding with TGF-β1 was examined by the method described in Example 22 (pull-down assay method); as a result, it was confirmed that TGF-β1 was detected in the precipitate of purified mouse asporin (FIG. 26).

[1] = tested on: ATDC5 cell lines that transiently express human asporin; test: TGF-β1-stimulated aggrecan and type II collagen gene expression in ATDC5 transiently expressing human asporin; format: cell-based, mouse; details: transient expression
Description: ATDC5 cells were inoculated to a 12-well plate at 0.5×10^5 cells/well, and cultured in a medium 1-2 (DMEM/F12 medium containing 5% FBS, ITS (Sigma), penicillin (100 U/ml) and streptomycin (100 μg/ml)). 24 hours later, pcDNA3.1-ASP13 or pcDNA3.1-ASP14 were introduced using FuGENE-6 (Roche), and the cells were cultured for 24 hours. Next, the medium was exchanged with a medium 1-2 containing 0.2% FBS, and the cells were cultured for 12 hours, after which TGF-β1 (10 ng/ml) was added, and the cells were further cultured for 18 hours, after which total RNA extraction, purification, cDNA synthesis, and real-time PCR were performed in the same manner as Example 18. As a result, the elevation of the TGF-β1-stimulated expression levels of the aggrecan and type II collagen genes was suppressed in the ATDC5 cells allowed to transiently express human asporin D13 or D14 compared to mock (FIG. 14).
First, the expression level of the aggrecan gene elevated by TGF-β1 stimulation in mock is written as (AM), and the expression level of the type II collagen gene at the same time is written as (CM). Next, the TGF-β1-stimulated aggrecan gene expression level suppressed by the forced expression of asporin D13 is written as (A13), and the type II collagen gene expression level at the same time is written as (C13). […] Thus, the suppression rate of the TGF-β1-stimulated aggrecan gene expression in the asporin D13 expressing line can be expressed as (A13)/(AM), and the suppression rate of the type II collagen gene expression as (C13)/(CM). Likewise, the suppression rate of the TGF-β1-stimulated aggrecan gene expression in the asporin D14 expressing line can be expressed as (A14)/(AM), and the suppression rate of the type II collagen gene expression as (C14)/(CM). Furthermore, by making a correction by dividing these values by the human asporin mRNA content obtained with TGF-β1 stimulation, the suppression rate of the aggrecan and type II collagen gene expression per human asporin mRNA content were calculated. […]

type II collagen, sequence (P02458 182-1241 limits assumed): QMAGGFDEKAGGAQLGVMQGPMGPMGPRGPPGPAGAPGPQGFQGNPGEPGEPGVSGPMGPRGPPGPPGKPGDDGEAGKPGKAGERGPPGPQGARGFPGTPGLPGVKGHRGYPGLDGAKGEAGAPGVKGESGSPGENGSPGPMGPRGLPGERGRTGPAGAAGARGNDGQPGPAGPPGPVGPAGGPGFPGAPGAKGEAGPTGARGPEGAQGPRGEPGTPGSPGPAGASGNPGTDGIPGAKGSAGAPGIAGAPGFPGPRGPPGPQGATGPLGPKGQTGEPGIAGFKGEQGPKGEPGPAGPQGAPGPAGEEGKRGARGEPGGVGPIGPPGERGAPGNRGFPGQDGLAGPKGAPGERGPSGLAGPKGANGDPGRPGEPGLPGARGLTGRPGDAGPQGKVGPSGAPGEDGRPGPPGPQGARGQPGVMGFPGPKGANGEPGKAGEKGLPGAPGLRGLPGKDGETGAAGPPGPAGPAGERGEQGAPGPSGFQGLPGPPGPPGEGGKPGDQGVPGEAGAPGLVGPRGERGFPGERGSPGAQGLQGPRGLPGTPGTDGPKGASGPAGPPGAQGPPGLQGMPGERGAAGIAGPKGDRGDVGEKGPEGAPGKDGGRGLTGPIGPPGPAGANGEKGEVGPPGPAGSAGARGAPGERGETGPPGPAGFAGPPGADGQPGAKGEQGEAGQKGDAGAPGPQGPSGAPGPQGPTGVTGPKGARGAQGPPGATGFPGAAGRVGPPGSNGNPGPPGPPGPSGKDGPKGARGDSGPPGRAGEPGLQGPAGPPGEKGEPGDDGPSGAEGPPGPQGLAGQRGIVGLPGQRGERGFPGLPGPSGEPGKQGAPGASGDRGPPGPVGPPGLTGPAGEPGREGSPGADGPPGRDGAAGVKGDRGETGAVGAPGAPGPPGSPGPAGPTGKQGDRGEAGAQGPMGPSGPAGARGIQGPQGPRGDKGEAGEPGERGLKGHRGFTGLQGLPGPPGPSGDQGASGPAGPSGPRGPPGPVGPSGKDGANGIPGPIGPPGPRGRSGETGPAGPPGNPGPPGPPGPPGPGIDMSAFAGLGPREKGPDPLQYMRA
T1 sequence (P02452 162-1218 limits assumed): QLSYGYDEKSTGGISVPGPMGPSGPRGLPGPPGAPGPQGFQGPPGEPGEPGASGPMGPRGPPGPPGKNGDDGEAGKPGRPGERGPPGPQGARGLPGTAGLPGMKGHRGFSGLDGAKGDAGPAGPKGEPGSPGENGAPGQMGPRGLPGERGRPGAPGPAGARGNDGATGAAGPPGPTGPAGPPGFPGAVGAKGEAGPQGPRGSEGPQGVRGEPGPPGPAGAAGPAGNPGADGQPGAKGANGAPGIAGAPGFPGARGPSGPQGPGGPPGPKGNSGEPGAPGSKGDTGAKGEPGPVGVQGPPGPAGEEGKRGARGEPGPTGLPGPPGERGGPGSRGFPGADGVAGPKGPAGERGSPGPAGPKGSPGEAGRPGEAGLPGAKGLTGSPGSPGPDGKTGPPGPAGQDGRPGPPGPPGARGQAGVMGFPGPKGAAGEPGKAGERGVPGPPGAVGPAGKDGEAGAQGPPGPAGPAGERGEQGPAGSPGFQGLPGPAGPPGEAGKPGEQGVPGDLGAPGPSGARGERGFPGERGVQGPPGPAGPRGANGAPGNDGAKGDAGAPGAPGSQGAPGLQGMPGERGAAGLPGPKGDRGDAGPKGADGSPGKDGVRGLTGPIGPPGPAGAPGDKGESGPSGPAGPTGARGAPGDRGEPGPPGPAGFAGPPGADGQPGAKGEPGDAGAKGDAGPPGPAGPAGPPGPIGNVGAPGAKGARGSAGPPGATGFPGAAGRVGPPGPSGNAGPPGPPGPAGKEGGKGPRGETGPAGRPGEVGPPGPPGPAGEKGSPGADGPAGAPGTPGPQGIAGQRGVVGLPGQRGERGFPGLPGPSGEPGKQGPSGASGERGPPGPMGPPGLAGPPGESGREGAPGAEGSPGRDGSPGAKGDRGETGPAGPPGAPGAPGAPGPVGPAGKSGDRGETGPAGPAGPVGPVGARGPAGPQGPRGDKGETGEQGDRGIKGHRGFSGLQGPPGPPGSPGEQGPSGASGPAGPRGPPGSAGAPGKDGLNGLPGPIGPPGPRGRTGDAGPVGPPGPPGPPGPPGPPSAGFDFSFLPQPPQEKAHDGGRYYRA
T1 sequence (P08123 80-1119 limits assumed): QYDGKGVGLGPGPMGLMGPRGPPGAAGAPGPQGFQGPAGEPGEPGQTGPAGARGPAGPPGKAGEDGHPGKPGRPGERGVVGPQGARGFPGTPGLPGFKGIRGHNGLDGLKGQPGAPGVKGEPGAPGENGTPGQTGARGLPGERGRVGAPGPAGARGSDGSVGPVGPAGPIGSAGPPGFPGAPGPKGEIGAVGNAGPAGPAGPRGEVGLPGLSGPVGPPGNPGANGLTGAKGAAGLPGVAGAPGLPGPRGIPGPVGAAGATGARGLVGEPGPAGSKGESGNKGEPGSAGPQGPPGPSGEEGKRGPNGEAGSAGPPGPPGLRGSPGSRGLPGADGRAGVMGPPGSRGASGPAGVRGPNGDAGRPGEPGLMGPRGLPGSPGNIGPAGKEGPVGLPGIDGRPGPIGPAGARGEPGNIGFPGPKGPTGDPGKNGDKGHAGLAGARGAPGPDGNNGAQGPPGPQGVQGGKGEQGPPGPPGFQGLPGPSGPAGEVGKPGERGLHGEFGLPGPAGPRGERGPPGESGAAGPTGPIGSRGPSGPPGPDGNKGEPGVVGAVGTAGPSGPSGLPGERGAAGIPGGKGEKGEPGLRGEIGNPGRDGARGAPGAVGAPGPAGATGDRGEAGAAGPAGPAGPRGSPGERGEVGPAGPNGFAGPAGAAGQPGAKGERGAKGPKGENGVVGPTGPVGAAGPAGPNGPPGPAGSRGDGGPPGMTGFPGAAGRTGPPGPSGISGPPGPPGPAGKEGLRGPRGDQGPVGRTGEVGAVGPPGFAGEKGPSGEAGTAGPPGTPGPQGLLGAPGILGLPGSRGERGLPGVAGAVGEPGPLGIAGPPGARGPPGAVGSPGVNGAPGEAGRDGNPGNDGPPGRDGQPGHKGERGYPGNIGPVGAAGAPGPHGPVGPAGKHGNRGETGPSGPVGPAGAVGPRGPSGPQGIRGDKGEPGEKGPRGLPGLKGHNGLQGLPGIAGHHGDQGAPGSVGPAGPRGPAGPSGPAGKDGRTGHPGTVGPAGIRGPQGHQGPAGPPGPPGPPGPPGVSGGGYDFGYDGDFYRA
TGF-β1, sequence (P01137 279-390 limits assumed, species assumed): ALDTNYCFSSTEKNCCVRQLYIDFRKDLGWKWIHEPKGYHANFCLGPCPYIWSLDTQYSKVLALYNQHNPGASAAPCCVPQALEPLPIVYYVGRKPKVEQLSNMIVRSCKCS

Molecule: bFGF: growth factor added to ATDC5 cells and coated on microplate [reference compound]
growth of ATDC5 cells (MTT, OD550) (ATDC5 cells): suppressed the growth of ATDC5 cells concentration-dependently

B3: D16: asporin having D-repeat number of 16, transiently expressed (protein)
chain: AKPFFSPSHIALKNMMLKDMEDTDDDDDDDDDDDDDDEDNSLFPTREPRSHFFPFDLFPMCPFGCQCYSRVVHCSDLGLTSVPTNIPFDTRMLDLQNNKIKEIKENDFKGLTSLYGLILNNNKLTKIHPKAFLTTKKLRRLYLSHNQLSEIPLNLPKSLAELRIHENKVKKIQKDTFKGMNALHVLEMSANPLDNNGIEPGAFEGVTVFHIRIAEAKLTSVPKGLPPTLLELHLDYNKISTVELEDFKRYKELQRLGLGNNKITDIENGSLANIPRVREIHLENNKLKKIPSGLPELKYLQIIFLHSNSIARVGVNDFCPTVPKMKKSLYSAISLFNNPVKYWEMQPATFRCVLSRMSVQLGNFGM
suppressive action on the TGF-β1-stimulated expression of COL2A1 compared with D14 [1]: significantly weaker than that of D14

B4: D17: asporin having D-repeat number of 17, transiently expressed (protein)
chain: B3 chain
suppressive action on the TGF-β1-stimulated expression of COL2A1 compared with D14 [1]: significantly weaker than that of D14

Now from value to molecule:

binding to type II collagen (type II collagen): did not bind
binding to type I collagen (type I collagen): did not bind
B1: biglycan: SLRP family proteoglycan used as the negative control for collagen binding (protein, UniProt P21810 38-368, looked up)
Biglycan: DEEASGADTSGVLDPDSVTPTYSAMCPFGCHCHLRVVQCSDLGLKSVPKEISPDTTLLDLQNNDISELRKDDFKGLQHLYALVLVNNKISKIHEKAFSPLRKLQKLYISKNHLVEIPPNLPSSLVELRIHDNRIRKVPKGVFSGLRNMNCIEMGGNPLENSGFEPGAFDGLKLNYLRISEAKLTGIPKDLPETLNELHLDHNKIQAIELEDLLRYSKLYRLGLGHNQIRMIENGSLSFLPTLRELHLDNNKLARVPSGLPDLKLLQVVYLHSNNITKVGVNDFCPMGFGVKRAYYNGISLFNNPVPYWEVQPATFRCVTDRLAIQFGNYKK

binding to TGF-β1 (pull-down) (TGF-β1): bound to TGF-β1 in vitro
binding to type II collagen (type II collagen): bound
binding to type I collagen (type I collagen): bound
B2: S-tagged human asporin D14: mature S-tagged human asporin D14 synthesized cell-free from pET29b-ASP14, lysines biotinylated (protein)
chain: DMEDTDDDDDDDDDDDDDDEDNSLFPTREPRSHFFPFDLFPMCPFGCQCYSRVVHCSDLGLTSVPTNIPFDTRMLDLQNNKIKEIKENDFKGLTSLYGLILNNNKLTKIHPKAFLTTKKLRRLYLSHNQLSEIPLNLPKSLAELRIHENKVKKIQKDTFKGMNALHVLEMSANPLDNNGIEPGAFEGVTVFHIRIAEAKLTSVPKGLPPTLLELHLDYNKISTVELEDFKRYKELQRLGLGNNKITDIENGSLANIPRVREIHLENNKLKKIPSGLPELKYLQIIFLHSNSIARVGVNDFCPTVPKMKKSLYSAISLFNNPVKYWEMQPATFRCVLSRMSVQLGNFGM
modifications: left off: small tags and cut ends
notes: mature S-tagged human asporin D14 synthesized cell-free from pET29b-ASP14, lysines biotinylated

binding to TGF-β1 (pull-down) (TGF-β1): bound to TGF-β1 in vitro
binding to type II collagen (type II collagen): bound
binding to type I collagen (type I collagen): bound
B5: S-tagged human asporin D13: mature S-tagged human asporin D13 synthesized cell-free from pET29b-ASP13, lysines biotinylated (protein)
chain: DMEDTDDDDDDDDDDDDDEDNSLFPTREPRSHFFPFDLFPMCPFGCQCYSRVVHCSDLGLTSVPTNIPFDTRMLDLQNNKIKEIKENDFKGLTSLYGLILNNNKLTKIHPKAFLTTKKLRRLYLSHNQLSEIPLNLPKSLAELRIHENKVKKIQKDTFKGMNALHVLEMSANPLDNNGIEPGAFEGVTVFHIRIAEAKLTSVPKGLPPTLLELHLDYNKISTVELEDFKRYKELQRLGLGNNKITDIENGSLANIPRVREIHLENNKLKKIPSGLPELKYLQIIFLHSNSIARVGVNDFCPTVPKMKKSLYSAISLFNNPVKYWEMQPATFRCVLSRMSVQLGNFGM
modifications: left off: small tags and cut ends
notes: mature S-tagged human asporin D13 synthesized cell-free from pET29b-ASP13, lysines biotinylated
